Series [1] has as its target T1, CYP2E1 (Homo sapiens, UniProt P05181).
T1 construct: N-terminal Arabidopsis Fd2 transit peptide fusion; transient expression in Nicotiana benthamiana chloroplasts; amplified from E. coli expression construct
Briefly: indican formation in infiltrated N. benthamiana leaves, LC-MS. The conditions noted are these: co-expressed with tnaA; chloroplast-targeted; product glucosylated to indican.

Series [2] deals with T2, CYP2A6 (Homo sapiens, UniProt P11509).
T2 construct: N-terminal Arabidopsis Fd2 transit peptide fusion; transient expression in Nicotiana benthamiana chloroplasts; amplified from E. coli expression construct
T2 sequence (P11509 1-494): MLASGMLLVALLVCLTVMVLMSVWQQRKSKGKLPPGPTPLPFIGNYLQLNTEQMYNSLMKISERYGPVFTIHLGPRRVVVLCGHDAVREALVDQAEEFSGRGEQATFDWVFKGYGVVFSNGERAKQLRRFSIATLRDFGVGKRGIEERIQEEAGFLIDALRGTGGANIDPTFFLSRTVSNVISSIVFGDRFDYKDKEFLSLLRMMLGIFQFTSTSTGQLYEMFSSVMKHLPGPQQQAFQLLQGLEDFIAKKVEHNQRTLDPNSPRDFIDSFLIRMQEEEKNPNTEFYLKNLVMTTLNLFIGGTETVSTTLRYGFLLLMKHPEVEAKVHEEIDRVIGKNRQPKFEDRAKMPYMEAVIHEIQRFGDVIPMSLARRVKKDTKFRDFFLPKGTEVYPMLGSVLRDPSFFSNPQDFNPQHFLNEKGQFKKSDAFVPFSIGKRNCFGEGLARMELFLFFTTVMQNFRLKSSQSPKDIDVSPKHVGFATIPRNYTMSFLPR
The series is described as above. Conditions: co-expressed with tnaA; chloroplast-targeted; product glucosylated to indican.

Series [3] deals with T3, tnaA (Escherichia coli, UniProt P0A853).
T3 construct: synthetic gene, N-terminal chloroplast transit peptide (Arabidopsis Fd2); transient expression in Nicotiana benthamiana chloroplasts
T3 sequence (P0A853 whole entry): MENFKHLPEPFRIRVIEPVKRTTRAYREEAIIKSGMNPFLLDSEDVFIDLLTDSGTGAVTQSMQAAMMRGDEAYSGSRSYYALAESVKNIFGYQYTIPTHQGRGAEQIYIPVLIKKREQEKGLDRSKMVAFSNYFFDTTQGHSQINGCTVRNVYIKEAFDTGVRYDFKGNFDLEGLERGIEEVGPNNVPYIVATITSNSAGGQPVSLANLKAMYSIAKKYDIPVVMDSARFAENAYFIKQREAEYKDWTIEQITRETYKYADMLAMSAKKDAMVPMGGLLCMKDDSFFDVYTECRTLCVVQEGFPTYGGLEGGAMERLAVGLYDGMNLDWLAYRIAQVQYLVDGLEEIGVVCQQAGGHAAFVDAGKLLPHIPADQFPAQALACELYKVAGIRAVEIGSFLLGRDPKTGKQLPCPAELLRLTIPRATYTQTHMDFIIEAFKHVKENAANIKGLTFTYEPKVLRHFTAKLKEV
Briefly: indole accumulation in infiltrated N. benthamiana leaves, UPLC-UV. The conditions noted are these: chloroplast-targeted; endogenous tryptophan. Also on record: species or system Nicotiana benthamiana leaves.

The target in series [4] is T4, spinach FNR (spinach) (UniProt P00455).
T4 sequence: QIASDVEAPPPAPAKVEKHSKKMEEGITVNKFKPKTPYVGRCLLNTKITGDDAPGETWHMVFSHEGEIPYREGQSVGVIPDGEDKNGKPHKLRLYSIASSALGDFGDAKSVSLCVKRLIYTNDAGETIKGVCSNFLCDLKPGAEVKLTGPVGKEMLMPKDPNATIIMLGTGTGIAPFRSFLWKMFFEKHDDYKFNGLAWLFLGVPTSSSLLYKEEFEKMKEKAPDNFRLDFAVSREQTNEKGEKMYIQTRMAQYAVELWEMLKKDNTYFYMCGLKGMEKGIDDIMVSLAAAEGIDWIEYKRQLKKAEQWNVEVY

The target in series [5] is T4, spinach FNR (spinach). This is another data set of the same source.
Series [6] has as its target T5, IsiB^6803 (Synechocystis sp. PCC 6803, UniProt P27319).
T5 construct: gene from colony PCR, pET14b, E. coli BL21(DE3), HisTrap purified; apoprotein for ITC
T5 sequence (P27319 1-170): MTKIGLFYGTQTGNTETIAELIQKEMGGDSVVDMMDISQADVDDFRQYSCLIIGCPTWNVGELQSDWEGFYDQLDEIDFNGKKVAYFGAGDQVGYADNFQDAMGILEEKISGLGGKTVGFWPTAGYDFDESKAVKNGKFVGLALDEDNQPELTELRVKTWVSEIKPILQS
Briefly: isothermal titration calorimetry. Format: binding. Conditions: read-out: affinities.

Series [7] concerns the target T6, HsCPR^62-241 (Homo sapiens, UniProt P16435).
T6 construct: gene POR; soluble flavodoxin-like (FMN) domain, residues 62-241, pET14b, E. coli BL21(DE3), HisTrap purified; apoprotein for ITC
T6 sequence (P16435 62-241): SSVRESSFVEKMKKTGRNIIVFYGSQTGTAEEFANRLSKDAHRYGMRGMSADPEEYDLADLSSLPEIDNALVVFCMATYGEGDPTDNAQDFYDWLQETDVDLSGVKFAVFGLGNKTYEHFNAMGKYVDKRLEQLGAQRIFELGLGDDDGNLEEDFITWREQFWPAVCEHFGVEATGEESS
Briefly: isothermal titration calorimetry. The conditions noted are these: read-out: affinities. Format: binding.

T1 sequence (P05181 whole entry, the tested form may be a part): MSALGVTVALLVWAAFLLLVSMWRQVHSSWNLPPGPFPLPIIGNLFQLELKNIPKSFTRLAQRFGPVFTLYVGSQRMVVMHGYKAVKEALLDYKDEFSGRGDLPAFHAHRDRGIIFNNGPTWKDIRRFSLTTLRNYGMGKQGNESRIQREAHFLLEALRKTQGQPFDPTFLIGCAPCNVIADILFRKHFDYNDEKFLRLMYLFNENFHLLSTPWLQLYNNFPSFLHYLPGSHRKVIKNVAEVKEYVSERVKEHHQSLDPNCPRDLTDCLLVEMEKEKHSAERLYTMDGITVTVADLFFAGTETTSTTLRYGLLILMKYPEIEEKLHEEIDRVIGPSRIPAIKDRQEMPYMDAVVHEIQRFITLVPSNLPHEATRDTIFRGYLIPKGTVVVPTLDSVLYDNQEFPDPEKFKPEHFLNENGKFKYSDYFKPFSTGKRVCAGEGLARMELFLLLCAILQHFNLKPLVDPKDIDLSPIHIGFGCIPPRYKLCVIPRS

`c1ccc2[nH]ccc2c1` [indole]: the “indican formation in infiltrated N. benthamiana leaves, LC-MS” value in series [1] and in series [2] was “accumulation was considerably higher when any P450 was co-expressed with tnaA” throughout.

With `N[C@@H](Cc1c[nH]c2ccccc12)C(=O)O` [tryptophan], the “indole accumulation in infiltrated N. benthamiana leaves, UPLC-UV” value in series [3] was “Expression of tnaA alone led to detectable indole accumulation in leaf samples”.

With “AtFd1 (from UniProt O04090 53-148) (natural protein)”, in series [4], the Vmax/KM of NADPH-dependent reduction of the electron carrier by FNR is 5.4; the decrease of light-driven coumarin 7-hydroxylation by CYP2A B49 in thylakoids (10 µM redox partner) on adding 0.6 µM FNR and 1.6 mM NADP+ is 80%. Moreover, in series [5], the KM of the electron carrier in NADPH-dependent reduction by FNR (40 nM spinach FNR, carrier 1-100 µM, read by cytochrome c reduction, Michaelis-Menten fit) worked out at 21.7 µM and the Vmax of NADPH-dependent reduction of the electron carrier by FNR (40 nM spinach FNR, carrier 1-100 µM, read by cytochrome c reduction, Michaelis-Menten fit) (µmol cyt c µmol FNR^-1 s^-1) came out at 118.

As for `Cc1cc2nc3c(=O)[nH]c(=O)nc-3n(C[C@H](O)[C@H](O)[C@H](O)COP(=O)(O)O)c2cc1C` [FMN], the figures for the Kd in series [6] and in series [7] were 2 nM and 25.7 nM, respectively.

B1: IsiB^6803 (natural protein)
chain: MTKIGLFYGTQTGNTETIAELIQKEMGGDSVVDMMDISQADVDDFRQYSCLIIGCPTWNVGELQSDWEGFYDQLDEIDFNGKKVAYFGAGDQVGYADNFQDAMGILEEKISGLGGKTVGFWPTAGYDFDESKAVKNGKFVGLALDEDNQPELTELRVKTWVSEIKPILQS
As for B1, in series [5], the KM of the electron carrier in NADPH-dependent reduction by FNR (40 nM spinach FNR, carrier 1-100 µM, read by cytochrome c reduction, Michaelis-Menten fit) turned out to be 17.7 µM and the Vmax of NADPH-dependent reduction of the electron carrier by FNR (40 nM spinach FNR, carrier 1-100 µM, read by cytochrome c reduction, Michaelis-Menten fit) (µmol cyt c µmol FNR^-1 s^-1) amounted to 10.

B2: HsCPR^62-241 (domain or fragment)
chain: SSVRESSFVEKMKKTGRNIIVFYGSQTGTAEEFANRLSKDAHRYGMRGMSADPEEYDLADLSSLPEIDNALVVFCMATYGEGDPTDNAQDFYDWLQETDVDLSGVKFAVFGLGNKTYEHFNAMGKYVDKRLEQLGAQRIFELGLGDDDGNLEEDFITWREQFWPAVCEHFGVEATGEESS
As for B2, in series [4], the Vmax/KM of NADPH-dependent reduction of the electron carrier by FNR was determined as 13.6. Also, in series [5], the KM of the electron carrier in NADPH-dependent reduction by FNR (40 nM spinach FNR, carrier 1-100 µM, read by cytochrome c reduction, Michaelis-Menten fit) worked out at 9.2 µM and the Vmax of NADPH-dependent reduction of the electron carrier by FNR (40 nM spinach FNR, carrier 1-100 µM, read by cytochrome c reduction, Michaelis-Menten fit) (µmol cyt c µmol FNR^-1 s^-1) came to 125.

The record behind these values is article PMC9890960, “Exploiting photosynthesis-driven P450 activity to produce indican in tobacco chloroplasts” (Frontiers in Plant Science, 2023).
